Assay results as given in patent US20220251215A1.

B1: NY-ESO CAR-T 24959N VL-VH (protein, part only; not given: scFv linker, hinge, signalling domains, not shown: large carriers)
chain, part: DIQMTQSPSSLSASVGDRVTITCQASQDISNYLKWYQQKPGKAPKILIHDASNLEIGVPSRFSGSGAGTDFIFTISSLQPEDIGTYYCQQYDNLPITFGQGTRLEIKQLQLLESGPGLVKPSETLSLICTVSGGSIRGSSYYWGWIRQPPEKGLEWIGSIYSSGSTYYNPSLKSRVTISADTSKNQFSLKLSSVTAADTAVYYCARHGGITAVQLEFDPWGQGTLVTVSS
B2: NY-ESO CAR-T 24958N VL-VH (protein, part only; not given: scFv linker, hinge, signalling domains, not shown: large carriers)
chain, part: DIQMTQSPSSLSASVGDRVTITCRTSQSISRYLNWYQQKPGKAPKLLIFAASSLQSGVPSRFSGSGSGADFTLTISSLQPEDFATYYCQQSYSTPPITFGQGTRLEIKQVQLQESGPGLVKPSQTLSLTCTVSGGSIISDGYYWSWIRQHPGKGLEWIGYVDYSGNTYYNPSLKSRIIMSVDTSKNQFSLKLTSVTAADTAVYFCVREGPLRDAFEIWGQGTMVTVSS
B3: NY-ESO CAR-T 24959N VH-VL (protein, part only; not given: scFv linker, hinge, signalling domains, not shown: large carriers)
chain, part: QLQLLESGPGLVKPSETLSLICTVSGGSIRGSSYYWGWIRQPPEKGLEWIGSIYSSGSTYYNPSLKSRVTISADTSKNQFSLKLSSVTAADTAVYYCARHGGITAVQLEFDPWGQGTLVTVSSDIQMTQSPSSLSASVGDRVTITCQASQDISNYLKWYQQKPGKAPKILIHDASNLEIGVPSRFSGSGAGTDFIFTISSLQPEDIGTYYCQQYDNLPITFGQGTRLEIK
B4: NY-ESO CAR-T 24958N VH-VL (protein, part only; not given: scFv linker, hinge, signalling domains, not shown: large carriers)
chain, part: QVQLQESGPGLVKPSQTLSLTCTVSGGSIISDGYYWSWIRQHPGKGLEWIGYVDYSGNTYYNPSLKSRIIMSVDTSKNQFSLKLTSVTAADTAVYFCVREGPLRDAFEIWGQGTMVTVSSDIQMTQSPSSLSASVGDRVTITCRTSQSISRYLNWYQQKPGKAPKLLIFAASSLQSGVPSRFSGSGSGADFTLTISSLQPEDFATYYCQQSYSTPPITFGQGTRLEIK

What follows are binders tested against HLA.A2/hB2M/NY-ESO-1: 157-165 WT on 3T3 cells (human) (UniProt P04439) (assay: cell-based or functional assay).

Binder | EC50 (#of APC cells), NFAT-luciferase | Max Fold (RLU), NFAT-luciferase
B1 | 24000 APC cells | 28.6 fold
B2 | 19900 APC cells | 6.4 fold
B3 | 14200 APC cells | 13.3 fold
B4 | 24500 APC cells | 6.7 fold

Each binder was assayed against HLA.A2 with NY-ESO-1: 157-165 on IM9 cells (assay: cell-based or functional assay).

Binder | Max Fold (RLU), NFAT-luciferase
B1 | 0.8 fold
B2 | 0.9 fold
B3 | 1.1 fold
B4 | 1 fold
